According to US8673850B2, “PCSK9 inhibitors and methods of use thereof” (Institut de Recherches Cliniques de Montreal, priority 2008, dated 2014):
Blank lines part the entries; values can stand above or below the molecule they belong to.

Target: PCSK9-V5 (Homo sapiens, UniProt Q8NBP7)
Experiment: Far Western blot with PCSK9-V5 conditioned media
Assay type: binding
Set-up: made in house; host or cells: CHO-K1 cells (conditioned medium, not purified)
Settings: lysates of cells overexpressing the construct
Method: Lysates (20 to 30 μg protein), media or purified AnxA2-(His)6 were heated in reducing or non-reducing Laemmli sample buffer, resolved by SDS-PAGE on 8% glycine gels and electro-transferred onto nitrocellulose membranes (GE Healthcare). Following 1 h incubation in 5% skim milk in Tris-Buffered Saline-0.1% Tween (TBST), membranes where incubated with conditioned media of CHO-K1 cells overexpressing either an empty vector (pIRES-V5), PC5A-V5, CHRD-V5, pIRES-D374Y, PCSK9-V5 or its V5-tagged mutants, or incubated with purified AnxA2-(His)6 for 3 h at room temperature. […] For competition experiments, 10 μg of His-tagged PCSK9 or CHRD were added to the PCSK9-V5 media before Far Western blotting. For PCSK9 binding requirements with the ˜33 kDa protein, 1M NaCl, 10 mg/ml heparin, 1M NaCl+10 mg/ml heparin, or 100 mM EDTA were added to the PCSK9-V5 conditioned media used for Far Western blotting.
Wild type human Annexin A2 (AnxA2) (ATCC #MGC-2257) and Annexin A1 (AnxA1) (ATCC #MGC-5095) were purchased from ATCC and subcloned into NheI/SacI digested pIRES2-EGFP vector. An HA epitope ([…]) was fused by PCR mutagenesis at the C-terminus of both AnxA1 and AnxA2. Two-steps PCRs were performed on AnxA2 cDNA to introduce point mutations (N62Q; S64A; K28S+D34N+E36S; R37S+E43H+K47M; 77RRTKK (SEQ ID NO: 26)>AATAK (SEQ ID NO: 27); ^77RRTKK (SEQ ID NO: 26)>AATAA (SEQ ID NO: 28); ^77RRTKKELASALK (SEQ ID NO: 29)>^77AATAAELASALA (SEQ ID NO: 30); 80KKELA (SEQ ID NO: 31)>GKPLD (SEQ ID NO: 32)), or amino acid (aa) deletions (Δ2-24, aa 2-24; ΔR1, aa 37-108; ΔR2, aa 109-192; ΔR3, aa 193-268; ΔR4, aa 269-339; Δ25-36, aa 25-36; Δ37-48, aa 37-48; Δ49-61, aa 49-61; Δ62-75, aa 62-75; Δ37-66, aa 37-66; Δ74-88, aa 74-88; Δ82-88, aa 82-88; Δ89-101, aa 89-101; Δ102-108, aa 102-108) into pIRES2-AnxA2-EGFP vector (see Table 3 above). In addition, using PCR, the AnxA2 segment aa 49-75 was swapped with the corresponding AnxA1 segment aa 58-84 [AnxA1 (aa 58-84)>AnxA2 (aa 49-75)]. Similar swaps were performed for the corresponding AnxA2 sequence with AnxA1 (AnxA1>AnxA2: aa 25-27; aa 28-30; aa 31-33; aa 34-36; aa 37-39; aa 40-42; aa 43-45; aa 46-48; aa 49-75; aa 49-61; aa 62-75). All final cDNA constructs were verified by DNA sequencing.

Chain of PCSK9-V5 (Q8NBP7 153-692): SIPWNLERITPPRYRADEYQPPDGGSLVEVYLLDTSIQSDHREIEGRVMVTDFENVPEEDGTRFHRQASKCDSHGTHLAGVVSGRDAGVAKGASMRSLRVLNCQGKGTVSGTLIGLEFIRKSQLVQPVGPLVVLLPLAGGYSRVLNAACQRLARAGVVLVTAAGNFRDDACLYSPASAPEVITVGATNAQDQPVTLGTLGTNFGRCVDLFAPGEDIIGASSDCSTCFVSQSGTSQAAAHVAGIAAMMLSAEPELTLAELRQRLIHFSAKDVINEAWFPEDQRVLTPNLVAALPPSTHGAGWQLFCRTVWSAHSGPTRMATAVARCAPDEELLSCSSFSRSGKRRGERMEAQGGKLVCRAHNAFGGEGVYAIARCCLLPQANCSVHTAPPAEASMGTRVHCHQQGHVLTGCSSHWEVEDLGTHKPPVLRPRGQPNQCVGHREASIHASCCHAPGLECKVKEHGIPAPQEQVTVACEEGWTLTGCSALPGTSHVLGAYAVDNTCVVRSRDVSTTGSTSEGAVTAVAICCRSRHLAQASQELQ
Chain of PCSK9-V5 (Q8NBP7 31-152 partner limits assumed): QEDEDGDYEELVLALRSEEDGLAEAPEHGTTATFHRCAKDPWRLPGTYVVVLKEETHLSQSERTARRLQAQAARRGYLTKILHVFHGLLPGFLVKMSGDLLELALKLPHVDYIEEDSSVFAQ

PCSK9-V5 binding by Far Western blot: does not affect binding to PCSK9
Molecule: Δ2-24: AnxA2 deletion of aa 2-24

PCSK9-V5 binding by Far Western blot: abolished PCSK9 binding
B1: Δ82-88: AnxA2 deletion of aa 82-88 (protein)
chain: MSTVHEILCKLSLEGDHSTPPSAYGSVKAYTNFDAERDALNIETAIKTKGVDEVTIVNILTNRSNAQRQDIAFAYQRRTKKSALSGHLETVILGLLKTPAQYDASELKASMKGLGTDEDSLIEIICSRTNQELQEINRVYKEMYKTDLEKDIISDTSGDFRKLMVALAKGRRAEDGSVIDYELIDQDARDLYDAGVKRKGTDVPKWISIMTERSVPHLQKVFDRYKSYSPYDMLESIRKEVKGDLENAFLNLVQCIQNKPLYFADRLYDSMKGKGTRDKVLIRIMVSRSEVDMLKIRSEFKRKYGKSLYYYIQQDTKGDYQKALLYLCGGDDYPYDVPDYA

PCSK9-V5 binding by Far Western blot: abolished PCSK9 binding
B2: Δ37-66: AnxA2 deletion of aa 37-66 (protein)
chain: MSTVHEILCKLSLEGDHSTPPSAYGSVKAYTNFDAEQRQDIAFAYQRRTKKELASALKSALSGHLETVILGLLKTPAQYDASELKASMKGLGTDEDSLIEIICSRTNQELQEINRVYKEMYKTDLEKDIISDTSGDFRKLMVALAKGRRAEDGSVIDYELIDQDARDLYDAGVKRKGTDVPKWISIMTERSVPHLQKVFDRYKSYSPYDMLESIRKEVKGDLENAFLNLVQCIQNKPLYFADRLYDSMKGKGTRDKVLIRIMVSRSEVDMLKIRSEFKRKYGKSLYYYIQQDTKGDYQKALLYLCGGDDYPYDVPDYA

PCSK9-V5 binding by Far Western blot: abolished PCSK9 binding
B3: Δ89-101: AnxA2 deletion of aa 89-101 (protein)
chain: MSTVHEILCKLSLEGDHSTPPSAYGSVKAYTNFDAERDALNIETAIKTKGVDEVTIVNILTNRSNAQRQDIAFAYQRRTKKELASALKLLKTPAQYDASELKASMKGLGTDEDSLIEIICSRTNQELQEINRVYKEMYKTDLEKDIISDTSGDFRKLMVALAKGRRAEDGSVIDYELIDQDARDLYDAGVKRKGTDVPKWISIMTERSVPHLQKVFDRYKSYSPYDMLESIRKEVKGDLENAFLNLVQCIQNKPLYFADRLYDSMKGKGTRDKVLIRIMVSRSEVDMLKIRSEFKRKYGKSLYYYIQQDTKGDYQKALLYLCGGDDYPYDVPDYA

PCSK9-V5 binding by Far Western blot: abolished PCSK9 binding
B4: Δ49-61: AnxA2 deletion of aa 49-61 (protein)
chain: MSTVHEILCKLSLEGDHSTPPSAYGSVKAYTNFDAERDALNIETAIKTNRSNAQRQDIAFAYQRRTKKELASALKSALSGHLETVILGLLKTPAQYDASELKASMKGLGTDEDSLIEIICSRTNQELQEINRVYKEMYKTDLEKDIISDTSGDFRKLMVALAKGRRAEDGSVIDYELIDQDARDLYDAGVKRKGTDVPKWISIMTERSVPHLQKVFDRYKSYSPYDMLESIRKEVKGDLENAFLNLVQCIQNKPLYFADRLYDSMKGKGTRDKVLIRIMVSRSEVDMLKIRSEFKRKYGKSLYYYIQQDTKGDYQKALLYLCGGDDYPYDVPDYA

PCSK9-V5 binding by Far Western blot: had no major effect
B5: ΔR2: AnxA2 deletion of aa 109-192 (protein)
chain: MSTVHEILCKLSLEGDHSTPPSAYGSVKAYTNFDAERDALNIETAIKTKGVDEVTIVNILTNRSNAQRQDIAFAYQRRTKKELASALKSALSGHLETVILGLLKTPAQQDARDLYDAGVKRKGTDVPKWISIMTERSVPHLQKVFDRYKSYSPYDMLESIRKEVKGDLENAFLNLVQCIQNKPLYFADRLYDSMKGKGTRDKVLIRIMVSRSEVDMLKIRSEFKRKYGKSLYYYIQQDTKGDYQKALLYLCGGDDYPYDVPDYA

PCSK9-V5 binding by Far Western blot: abolished PCSK9 binding
B6: Δ37-48: AnxA2 deletion of aa 37-48 (protein)
chain: MSTVHEILCKLSLEGDHSTPPSAYGSVKAYTNFDAEKGVDEVTIVNILTNRSNAQRQDIAFAYQRRTKKELASALKSALSGHLETVILGLLKTPAQYDASELKASMKGLGTDEDSLIEIICSRTNQELQEINRVYKEMYKTDLEKDIISDTSGDFRKLMVALAKGRRAEDGSVIDYELIDQDARDLYDAGVKRKGTDVPKWISIMTERSVPHLQKVFDRYKSYSPYDMLESIRKEVKGDLENAFLNLVQCIQNKPLYFADRLYDSMKGKGTRDKVLIRIMVSRSEVDMLKIRSEFKRKYGKSLYYYIQQDTKGDYQKALLYLCGGDDYPYDVPDYA

PCSK9-V5 binding by Far Western blot: completely abrogated the interaction
B7: ΔR1: AnxA2 deletion of aa 37-108 (protein)
chain: MSTVHEILCKLSLEGDHSTPPSAYGSVKAYTNFDAEYDASELKASMKGLGTDEDSLIEIICSRTNQELQEINRVYKEMYKTDLEKDIISDTSGDFRKLMVALAKGRRAEDGSVIDYELIDQDARDLYDAGVKRKGTDVPKWISIMTERSVPHLQKVFDRYKSYSPYDMLESIRKEVKGDLENAFLNLVQCIQNKPLYFADRLYDSMKGKGTRDKVLIRIMVSRSEVDMLKIRSEFKRKYGKSLYYYIQQDTKGDYQKALLYLCGGDDYPYDVPDYA

PCSK9-V5 binding by Far Western blot: abolished PCSK9 binding
B8: Δ62-75: AnxA2 deletion of aa 62-75 (protein)
chain: MSTVHEILCKLSLEGDHSTPPSAYGSVKAYTNFDAERDALNIETAIKTKGVDEVTIVNILTQRRTKKELASALKSALSGHLETVILGLLKTPAQYDASELKASMKGLGTDEDSLIEIICSRTNQELQEINRVYKEMYKTDLEKDIISDTSGDFRKLMVALAKGRRAEDGSVIDYELIDQDARDLYDAGVKRKGTDVPKWISIMTERSVPHLQKVFDRYKSYSPYDMLESIRKEVKGDLENAFLNLVQCIQNKPLYFADRLYDSMKGKGTRDKVLIRIMVSRSEVDMLKIRSEFKRKYGKSLYYYIQQDTKGDYQKALLYLCGGDDYPYDVPDYA

PCSK9-V5 binding by Far Western blot: had no major effect
B9: ΔR4: AnxA2 deletion of aa 269-339 (protein)
chain: MSTVHEILCKLSLEGDHSTPPSAYGSVKAYTNFDAERDALNIETAIKTKGVDEVTIVNILTNRSNAQRQDIAFAYQRRTKKELASALKSALSGHLETVILGLLKTPAQYDASELKASMKGLGTDEDSLIEIICSRTNQELQEINRVYKEMYKTDLEKDIISDTSGDFRKLMVALAKGRRAEDGSVIDYELIDQDARDLYDAGVKRKGTDVPKWISIMTERSVPHLQKVFDRYKSYSPYDMLESIRKEVKGDLENAFLNLVQCIQNKPLYPYDVPDYA

PCSK9-V5 binding by Far Western blot: abolished PCSK9 binding
B10: Δ74-88: AnxA2 deletion of aa 74-88 (protein)
chain: MSTVHEILCKLSLEGDHSTPPSAYGSVKAYTNFDAERDALNIETAIKTKGVDEVTIVNILTNRSNAQRQDIAFSALSGHLETVILGLLKTPAQYDASELKASMKGLGTDEDSLIEIICSRTNQELQEINRVYKEMYKTDLEKDIISDTSGDFRKLMVALAKGRRAEDGSVIDYELIDQDARDLYDAGVKRKGTDVPKWISIMTERSVPHLQKVFDRYKSYSPYDMLESIRKEVKGDLENAFLNLVQCIQNKPLYFADRLYDSMKGKGTRDKVLIRIMVSRSEVDMLKIRSEFKRKYGKSLYYYIQQDTKGDYQKALLYLCGGDDYPYDVPDYA

PCSK9-V5 binding by Far Western blot: had no major effect
B11: ΔR3: AnxA2 deletion of aa 193-268 (protein)
chain: MSTVHEILCKLSLEGDHSTPPSAYGSVKAYTNFDAERDALNIETAIKTKGVDEVTIVNILTNRSNAQRQDIAFAYQRRTKKELASALKSALSGHLETVILGLLKTPAQYDASELKASMKGLGTDEDSLIEIICSRTNQELQEINRVYKEMYKTDLEKDIISDTSGDFRKLMVALAKGRRAEDGSVIDYELIDYFADRLYDSMKGKGTRDKVLIRIMVSRSEVDMLKIRSEFKRKYGKSLYYYIQQDTKGDYQKALLYLCGGDDYPYDVPDYA
